Measured values from paper doi:10.1101/2025.11.26.690709.
Numbering of substitutions follows the chain as printed. Numbers in names are those of the source.

How the values were obtained:
[1] = target: CHIP-myc ΔStartCodon (c.3G>A) (human) (UniProt Q9UNE7); assay: native gel or EMSA
[2] = target: CHIP Y230Cfs*9, recombinant (human) (UniProt Q9UNE7); assay: mass photometry
[3] = target: T1, CHIP-myc wild type (human), Q9UNE7; assay: native gel or EMSA; details: remark: other sources report otherwise
T1 chain: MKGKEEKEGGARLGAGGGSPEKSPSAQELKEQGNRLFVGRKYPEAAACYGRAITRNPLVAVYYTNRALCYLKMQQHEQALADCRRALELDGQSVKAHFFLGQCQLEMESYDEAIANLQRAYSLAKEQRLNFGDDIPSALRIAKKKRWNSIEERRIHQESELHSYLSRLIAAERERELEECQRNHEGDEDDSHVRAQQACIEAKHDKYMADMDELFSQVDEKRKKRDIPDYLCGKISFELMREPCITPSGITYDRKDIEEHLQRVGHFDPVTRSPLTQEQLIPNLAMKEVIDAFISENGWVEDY

[4] = target: T2, CHIP-myc K30A (human), Q9UNE7; assay: native gel or EMSA; details: remark: other sources report otherwise
T2 chain: T1 chain with K30A

“CHIP-myc ΔStartCodon (c.3G>A) (from UniProt Q9UNE7-1 1-303) (natural protein)” was tested. Which stoichiometry N [1] did it give?
Its stoichiometry N is 2.

Which percent of the protein as dimers [2] does the source give for “CHIP Y230Cfs*9, recombinant (from UniProt Q9UNE7-1 1-303) (natural protein)” here?
The percent of the protein as dimers was 80%.

What about the stoichiometry N [2] of the same molecule?
Its stoichiometry N is 2.

B1: CHIP-myc wild type, Q9UNE7-1 1-303 (natural protein)
chain: T1 chain
For B1, which stoichiometry N [3] is on record?
The stoichiometry N was 2.

B2: CHIP-myc K30A, Q9UNE7-1 1-303 (natural protein)
chain: T1 chain with K30A
How did the stoichiometry N [4] turn out when B2 was run?
The stoichiometry N was 2.
